Assay results: the supplement of paper PMC7125110
± gives the standard error. For some assays here: This sample holds only a part of the variants without activity.

B1: glmS ribozyme (parent)
chain: AUAAAAGCGCCAGAACUACAGAAAUGUAGUUGACGAGGAGGAGGUUUAUCGAAUUUUCGGCGGAUGCCUCCAAA

Experiments:
Conditions in all cases: with glucosamine-6-phosphate
[1] = variants of: B1; assay: kcat; higher = faster cleavage; RNA array
Summary of the method: (§1)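 Barcoded glmS ribozyme variants on sequenced MiSeq chips were transcribed in situ by E. coli RNA polymerase and tracked through a hybridised Cy3 probe at 37 °C. Glucosamine-6-phosphate (40 μM to 10 mM) in HEPES/KCl/Mg(OAc)2 buffer was flowed in, and tiles were imaged over ~14 h. Signals were normalised to baseline and to non-cleaving reference variants; per-tile medians were fit to one- or two-exponential decays to give kobs. kcat and KM came from weighted Michaelis–Menten fits across concentrations.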

[2] = variants of: B1; assay: self-cleavage kobs at 640 uM GlcN6P; higher = faster cleavage; RNA array
Summary of the method: as §1

[3] = variants of: B1; assay: KM; higher = weaker cofactor use; RNA array
Summary of the method: as §1

[4] = variants of: B1; assay: self-cleavage kobs at 10000 uM GlcN6P; higher = faster cleavage; RNA array
Summary of the method: as §1

[5] = variants of: B1; assay: self-cleavage kobs at 40 uM GlcN6P; higher = faster cleavage; RNA array
Summary of the method: as §1

[6] = variants of: B1; assay: self-cleavage kobs at 2500 uM GlcN6P; higher = faster cleavage; RNA array
Summary of the method: as §1

[7] = variants of: B1; assay: self-cleavage kobs at 160 uM GlcN6P; higher = faster cleavage; RNA array
Summary of the method: as §1

| Variant | kcat [1] | self-cleavage kobs at 640 uM GlcN6P [2] | KM [3] | self-cleavage kobs at 10000 uM GlcN6P [4] | self-cleavage kobs at 40 uM GlcN6P [5] | self-cleavage kobs at 2500 uM GlcN6P [6] | self-cleavage kobs at 160 uM GlcN6P [7] |
| --- | --- | --- | --- | --- | --- | --- | --- |
| G7A U45C | < 1e-05 s⁻¹ | < 1e-05 s⁻¹ | – | – | – | – | – |
| G13C U31C G32U U65G C67U | 6.88e-05 ± 4.5e-06 s⁻¹ | – | 3040 ± 640 µM | 5.26e-05 ± 1.4e-05 s⁻¹ | – | – | – |
| A12U C16A | 0.00549 ± 0.00094 s⁻¹ | 0.00128 ± 0.00027 s⁻¹ | 2210 ± 520 µM | 0.00413 ± 0.00074 s⁻¹ | 9.36e-05 ± 1.5e-05 s⁻¹ | 0.00417 ± 0.00091 s⁻¹ | – |
| C50G U57C | 4.02e-05 ± 1.6e-05 s⁻¹ | – | – | – | – | 5.18e-05 ± 1.7e-05 s⁻¹ | 4.88e-05 ± 2e-05 s⁻¹ |
| G40A U55G | 0.00116 ± 0.00032 s⁻¹ | 0.000944 ± 0.00014 s⁻¹ | 369 ± 170 µM | 0.00106 ± 0.00018 s⁻¹ | 0.000131 ± 1.8e-05 s⁻¹ | – | 0.000246 ± 5.5e-05 s⁻¹ |
| A15U U55C | 0.00268 ± 0.0003 s⁻¹ | 0.00136 ± 0.00052 s⁻¹ | 915 ± 160 µM | 0.00269 ± 0.00038 s⁻¹ | 0.000117 ± 2.1e-05 s⁻¹ | 0.00158 ± 0.00036 s⁻¹ | 0.00039 ± 6.4e-05 s⁻¹ |
| U47G U55C | 0.00713 ± 0.0025 s⁻¹ | 0.00372 ± 0.00087 s⁻¹ | 1030 ± 470 µM | 0.00759 ± 0.0024 s⁻¹ | 0.000233 ± 4.3e-05 s⁻¹ | 0.00386 ± 0.0012 s⁻¹ | 0.00147 ± 0.00034 s⁻¹ |
| U31C G32A | 0.0022 ± 0.00058 s⁻¹ | 0.000179 ± 2.1e-05 s⁻¹ | 6580 ± 2400 µM | 0.00134 ± 0.00014 s⁻¹ | 4.27e-05 ± 1.5e-05 s⁻¹ | 0.000604 ± 7.5e-05 s⁻¹ | 6.8e-05 ± 1.3e-05 s⁻¹ |
| C16G U31G | 0.000843 ± 0.00018 s⁻¹ | 0.000186 ± 4.5e-05 s⁻¹ | 2360 ± 940 µM | 0.00071 ± 0.0001 s⁻¹ | 4.37e-05 ± 1.7e-05 s⁻¹ | 0.000366 ± 0.0001 s⁻¹ | 4.98e-05 ± 1.6e-05 s⁻¹ |
| A33U C68U | 1.75e-05 ± 1.6e-06 s⁻¹ | – | – | – | < 1e-05 s⁻¹ | – | – |
| A6G C50G C68U | 0.000115 ± 2.9e-05 s⁻¹ | 0.000189 ± 4.8e-05 s⁻¹ | – | 7.92e-05 ± 2.5e-05 s⁻¹ | 5.04e-05 ± 2.1e-05 s⁻¹ | 0.000173 ± 4.6e-05 s⁻¹ | 9.16e-05 ± 2.3e-05 s⁻¹ |
| C11U G13C A52U C70U | 1.58e-05 ± 5.8e-06 s⁻¹ | – | – | < 1e-05 s⁻¹ | < 1e-05 s⁻¹ | – | – |
| A14G G32A | 0.0158 ± 0.0015 s⁻¹ | 0.00305 ± 0.0005 s⁻¹ | 2500 ± 310 µM | 0.0136 ± 0.0018 s⁻¹ | 0.000266 ± 3.1e-05 s⁻¹ | 0.00726 ± 0.0011 s⁻¹ | 0.000935 ± 0.00013 s⁻¹ |
| G13A G32U | 0.000303 ± 3.2e-05 s⁻¹ | 4.76e-05 ± 1e-05 s⁻¹ | 3170 ± 600 µM | 0.000221 ± 3.7e-05 s⁻¹ | – | 0.000147 ± 2.3e-05 s⁻¹ | – |
